Reference: the supplement of paper PMC9170038

What follows are sequences tested on K4 kissing-loop RNA reporter (assay: apparent KD of K4 kissing-loop reporter; higher = weaker reporter binding). Settings: Eterna round: R107; input ligand: none.
Protocol: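 RNA-MaP round R107: designed RNA switches with theophylline, tryptophan, arginine or FMN aptamers are transcribed on-chip within common flanks. They are titrated with a labelled K4 kissing-loop RNA reporter in RNA-MaP buffer (100 mM Tris pH 7.5, 80 mM KCl, 4 mM MgCl2), without ligand or with the indicated ligand. Median apparent KD per design.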
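Also: bound reporter read as fluorescence of individual clusters on recovered sequencing chips by microscopy, with normalized cluster intensities fitted with a binding model.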

Row | Sequence | apparent KD of K4 kissing-loop reporter [nM]
1 | UAACUUGCAGUGAUGUUGCAAGAACUGGAUACCAGCAUGGAAACAUGCCCUUGGCAGCCAGAAGGUAUCCUCUUGCAUAGAUACU [Design3] | 195
2 | CACCAUGAAUUCUCUAGGAGUGAUGUUUUUCGAGGACCGGUACGGCCGCCACUCGGACGAGGACCGUGGGAGCGGCGAACCGACU [ddfgmullin] | 208
3 | AGACUUCACCGAAGGAGCGACGUAGCCUAGUGAUGUUAGGCACGAGAGAAAUCUCGUAUACGUCAGGUAGGUCGCGGUGAAGUCA [Omei KL Arginine B SS C v1] | 161
4 | UGUGUUUACCUGACUCAGUGAUGUUGAGAAGGAGCGUUCGAAAGAACAGGUAGGUCGCUCAACCUAAAUUCAGGUGAGCACUAAA | 376
5 | UGGUUCAAUACGGCCGCCACUGGUGAGUGAUGUUUACCGUCUAUAUCAUGUGUCGAGAGCGCUAUCAGGACCGGGUAGGGACCGU [theeternabot_exclusion_KL_Trp_B_42] | 721
6 | GGAUAGGAUAGAGGAUAUGGCUUACACAGAAAUAACUUGUUGUGUUUAUCCAUAGGGAGUGAUGUUCCAGAAGGCUGUCCUAUCG [MatMod 19 - Jieux - Exclusion - FMN B] | 210
7 | UUGCGGAGUGAUGUUUCGGGAUAUCGGGAAGGAGCGCCGAUAACGGCAGGUAGGUCGCCCGGUCCAGUGAUGUUGGGCAUGCAUU [Exclusion Arg A GF 23] | 212
8 | CUAUGAGUGAUGUUCGUAGGUUGGGCUUGGCAGGAUAUGGGAUCUUCCAGAAGGGCCGAUUCCGGCGAGUGAUGUUCGUUGGUCU [Exclusion FMN A GF30] | 50.1
9 | CCUAUCUCAUACGAUACCAGUCCGAGUGAUGUUCGAACAUAAAUUAGUUUGCCAUAUAAUGACCCUUGGCAGCGUAUGGGAUAGG [Ex Theophylline B K4 12] | 550
10 | UCCACGCUUAGAGGAUAUCGGAUUAGAGUGAUGUUCUAAAGAAGCCCAGUGAUGUUGGAUGGUAUACGAGAAGGCUGUGGCGUGU [Same State FMN B GF 4] | 386
11 | CUUGGAAGGACGGCCGCCACUCGACGGAGUGAUGUUCCGUGUGGGUAGCGCAGUGAUGUUGUGUCGAGGACCGGGUCCUAGGAAU [Exclusion Tryptophan B GF 28] | 143
12 | AAACUUGCAGUGAUGUUGCAAGUAGGUGAUACCAGCAUCGAAAGAUGCCCUUGGCAGCACCAACACUGUAAGUAAGUAUCACCAA [(H1)-(H2)-(T1)-(T2)-(H)'-(T)'_Design2] | 117
13 | UGGACCGCCUGAGGAUAUAGGGACGAGUGAUGUUCGUGGACCAGAGCCAGUGAUGUUGGGUUAUUUCUAGAAGGCGGGCGAACUU [Exclusion FMN B GF11] | 188
14 | GGGUUUGCCGGAAGGAGCGCACUAUGGAGUGAUGUUCCAUGACCGCACAGCUUGCGGUCAGUGCAGGUAGGUCGCCGGUAGCGUU [Maedzaus] | 239
15 | AGAUGGAAUAGAAGGAGCGGCGCCAGUGAUGUUGGAUGCCGCGGGUGAAUCAUGUCAUAGUGCCAGGUAGGUCGCUAUUUCAGCU [Beinveve] | 96.6
16 | AUGCUUUUAAUAACACUAUAUACAGCUGAAGGAGCGACAAUAAAGUCAGGUAGGUCGCAGAAUAGAUGAGUGAUGUUCAUUUUUA [#05 K4 Arginine A Exclusion] | 118

Same assay, conditions: Eterna round: R107; input ligand: theophylline 20 uM

Row | Sequence | apparent KD of K4 kissing-loop reporter [nM]
17 | AAUAAGGAGUGAUGUUCCAAGUGAUGUUAACGAGGACCGGUACGGCCGCCACUCGAUACGGCCGGAAAGUAAGAUAAACUACAAU [Same State - Tryptophan A (Freestyle 3)] | 55.9
18 | UAUGAAGGUGGAGGAUAUUGAUUGAACCUUGGUCAGGAGUGAUGUUCCGGGAAGCCUUGGGUUCAUCGAGAAGGCCAAGGAUAGU [Extra 2] | 280
19 | GCCGUAGAUUGAAGGAGCGGACUUAUAGGUCUUAAGGAGUGAUGUUCCUGACACUCGGCGGUCCAGGUAGGUCGCAAUCUACGGC | 252
20 | UGACAUUGCUCAGAUACCAGACACGAGGAUCACCCGUGUGCCAAAACGUACUAAAUAAGUGUCCCUUGGCAGCUGAGCAAUGUCU [TheoBX 13] | 148
21 | GCAUCAUGCUACGAUACCAGAAGUUCCCUUUAGUGUAGUGAUGUUGCAGAUAUUGCUUACUUCCCUUGGCAGCGUUUGACGGGUA [theeternabot_sameState_KL_Theo_B_35] | 335
22 | AAUGCAUUGUGAAGGAGCGCGUUAAGCAGUGAUGUUGCUUUUAUAUUUUUCAGUUUUAUAUCGCAGGUAGGUCGCACUUUGCAUA [JR_Nu_SSArginiB_Sub029] | 192
23 | UUAGGAGUGGAAGGAUAUCCUGGUGUGGGUGGUGUUAGUGAUGUUGGUGGUGCAGUGAUGUUGCGCGGAGAAGGUCCGGUGUUGA [BDazzled - #4 - Exc. FMN B] | 554
24 | UGACUGGACUGAAGGAGCGCGCGAGACAAAGUCUCGAACUGCUAGUGAUGUUAGCAAAUAACGCAGGUAGGUCGCAGUCUAGUCU [ArgBS 11 #SwitchBubble #StaticStem #DoubleMagnet] | 92.3
25 | AACUGUCAAGGCCAACAUUACUGAGGUGAUACCAGCAUCGAAAGAUGCCCUUGGCAGCACCGACUUGCAGUGAUGUUGCAAGUAA [BrourdMod 12 - Jieux - Exclusion - Theophylline A] | 370
26 | UGCCCGCGCGAAGGAUAUGAGAGCUUGUCUGUCCAGUGAUGUUGGAGGUUGGUGAUUUGCUAGGCGUCAGAAGGUCGAGCUUAUA [theeternabot_sameState_KL_FMN_B_14] | 150
27 | UAAGAGGACCACUACAAGAGUCCUCGAAUACGAGGACCGGUACGGCCGCCACUCGAUAACUUGUAGUGAUGUUGCAAGUAAGAAU [BrourdMod 2 - Jieux - Same State Tryptophan A] | 97.4
28 | UUGGCAGUGAUGUUGCCAGACAUCACCGAAGGAGCGGGCGAAAGCCCAGGUAGGUCGCGGUAGCGGAGUGAUUCUCCGCGAGGGC [Same State Arginine A GF 23] | 759
29 | GCAACAUUGGCAGGAUAUCCUUCUCAGUGAUGUUGAGGGUUCAGCUAACGAAAGUUAGUUGUACCGGGAGAAGGGCUAAUGUUGC [Omei KL FMN B SS A v8] | 913
30 | GCGGCGGGCCAAGGAUAUAUAUUGGAGUGAUGUUGUUCAUUUAUUUGAGCUAGUGAUGUUGGUCAGAUAGAAGGUGGCCCGCCGC [whbob_Ex_FMNB__2th216] | 46.2
31 | CUAUAAGUGCCGAGUGAUGUUCGGCCAAUACGAGGACCGGUACGGCCGCCACUCGGUCAGUCGGUGCCCACCGGGCAUGGCUGAC [Ortima] | 213
32 | UAACUUGCAGUGAUGUUGCAAGAACUGGAUACCAGCAUGGAAACAUGCCCUUGGCAGCCAGAAGGUAUCCUCUUGCAUAGAUACU [Design3] | 220
33 | CACCAUGAAUUCUCUAGGAGUGAUGUUUUUCGAGGACCGGUACGGCCGCCACUCGGACGAGGACCGUGGGAGCGGCGAACCGACU [ddfgmullin] | 334
34 | AGACUUCACCGAAGGAGCGACGUAGCCUAGUGAUGUUAGGCACGAGAGAAAUCUCGUAUACGUCAGGUAGGUCGCGGUGAAGUCA [Omei KL Arginine B SS C v1] | 171
35 | UGUGUUUACCUGACUCAGUGAUGUUGAGAAGGAGCGUUCGAAAGAACAGGUAGGUCGCUCAACCUAAAUUCAGGUGAGCACUAAA | 466
36 | UGGUUCAAUACGGCCGCCACUGGUGAGUGAUGUUUACCGUCUAUAUCAUGUGUCGAGAGCGCUAUCAGGACCGGGUAGGGACCGU [theeternabot_exclusion_KL_Trp_B_42] | 837
37 | GGAUAGGAUAGAGGAUAUGGCUUACACAGAAAUAACUUGUUGUGUUUAUCCAUAGGGAGUGAUGUUCCAGAAGGCUGUCCUAUCG [MatMod 19 - Jieux - Exclusion - FMN B] | 232
38 | UUGCGGAGUGAUGUUUCGGGAUAUCGGGAAGGAGCGCCGAUAACGGCAGGUAGGUCGCCCGGUCCAGUGAUGUUGGGCAUGCAUU [Exclusion Arg A GF 23] | 201
39 | CUAUGAGUGAUGUUCGUAGGUUGGGCUUGGCAGGAUAUGGGAUCUUCCAGAAGGGCCGAUUCCGGCGAGUGAUGUUCGUUGGUCU [Exclusion FMN A GF30] | 43.2
